Data taken from publication PMC13078783 (2026).

What was measured:
KLC2 TPR domain = assay: FP
KLC1 TPR domain = assay: FP
Chain of KLC1 TPR domain (chain, as listed by the source): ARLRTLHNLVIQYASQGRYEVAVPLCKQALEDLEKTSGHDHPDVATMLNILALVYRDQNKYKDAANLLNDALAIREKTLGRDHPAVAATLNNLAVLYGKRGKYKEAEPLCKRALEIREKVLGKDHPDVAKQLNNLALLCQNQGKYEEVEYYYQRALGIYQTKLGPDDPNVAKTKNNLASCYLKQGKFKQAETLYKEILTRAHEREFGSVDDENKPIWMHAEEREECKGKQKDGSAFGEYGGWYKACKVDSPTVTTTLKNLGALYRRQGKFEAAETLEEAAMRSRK

Chain of KLC2 TPR domain (chain, as listed by the source): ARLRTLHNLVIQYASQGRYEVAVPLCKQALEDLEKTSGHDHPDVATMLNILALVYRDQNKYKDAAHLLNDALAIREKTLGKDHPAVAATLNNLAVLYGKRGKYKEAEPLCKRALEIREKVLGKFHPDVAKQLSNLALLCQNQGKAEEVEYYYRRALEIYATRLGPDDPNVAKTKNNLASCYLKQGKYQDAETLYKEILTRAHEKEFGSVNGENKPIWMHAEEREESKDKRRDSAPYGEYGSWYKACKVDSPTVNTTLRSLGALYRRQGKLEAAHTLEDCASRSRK

Kd (KLC2 TPR domain): 750 nM
Kd (KLC1 TPR domain): 830 nM
B1: SKIP W-acidic motif peptide (peptide)
chain: {TAMRA}-STNLEWDDSAI-NH2
